B1: Rad51: DNA repair gene overexpressed from plasmid (protein, UniProt Q06609 2-339, looked up)
DNA repair protein RAD51 …: AMQMQLEANADTSVEEESFGPQPISRLEQCGINANDVKKLEEAGFHTVEAVAYAPKKELINIKGISEAKADKILAEAAKLVPMGFTTATEFHQRRSEIIQITTGSKELDKLLQGGIETGSITEMFGEFRTGKTQICHTLAVTCQLPIDRGGGEGKAMYIDTEGTFRPERLLAVAERYGLSGSDVLDNVAYARAFNTDHQTQLLYQASAMMVESRYALLIVDSATALYRTDYSGRGELSARQMHLARFLRMLLRLADEFGVAVVITNQVVAQVDGAAMFAADPKKPIGGNIIAHASTTRLYLRKGRGETRICKIYDSPCLPEAEAMFAINADGVGDAKD
B2: CtIP: principal HR mediator, overexpressed from plasmid (protein, UniProt Q99708 1-897, looked up)
DNA endonuclease RBBP8: MNISGSSCGSPNSADTSSDFKDLWTKLKECHDREVQGLQVKVTKLKQERILDAQRLEEFFTKNQQLREQQKVLHETIKVLEDRLRAGLCDRCAVTEEHMRKKQQEFENIRQQNLKLITELMNERNTLQEENKKLSEQLQQKIENDQQHQAAELECEEDVIPDSPITAFSFSGVNRLRRKENPHVRYIEQTHTKLEHSVCANEMRKVSKSSTHPQHNPNENEILVADTYDQSQSPMAKAHGTSSYTPDKSSFNLATVVAETLGLGVQEESETQGPMSPLGDELYHCLEGNHKKQPFEESTRNTEDSLRFSDSTSKTPPQEELPTRVSSPVFGATSSIKSGLDLNTSLSPSLLQPGKKKHLKTLPFSNTCISRLEKTRSKSEDSALFTHHSLGSEVNKIIIQSSNKQILINKNISESLGEQNRTEYGKDSNTDKHLEPLKSLGGRTSKRKKTEEESEHEVSCPQASFDKENAFPFPMDNQFSMNGDCVMDKPLDLSDRFSAIQRQEKSQGSETSKNKFRQVTLYEALKTIPKGFSSSRKASDGNCTLPKDSPGEPCSQECIILQPLNKCSPDNKPSLQIKEENAVFKIPLRPRESLETENVLDDIKSAGSHEPIKIQTRSDHGGCELASVLQLNPCRTGKIKSLQNNQDVSFENIQWSIDPGADLSQYKMDVTVIDTKDGSQSKLGGETVDMDCTLVSETVLLKMKKQEQKGEKSSNEERKMNDSLEDMFDRTTHEEYESCLADSFSQAADEEEELSTATKKLHTHGDKQDKVKQKAFVEPYFKGDERETSLQNFPHIEVVRKKEERRKLLGHTCKECEIYYADMPAEEREKKLASCSRHRFRYIPPNTPENFWEVGFPSTQTCMERGYIKEDLDPCPRPKRRQPYNAIFSPKGKEQKT
B3: MRE11a: principal HR mediator, overexpressed from plasmid (protein, UniProt P49959 2-708, looked up)
Double-strand break repair …: STADALDDENTFKILVATDIHLGFMEKDAVRGNDTFVTLDEILRLAQENEVDFILLGGDLFHENKPSRKTLHTCLELLRKYCMGDRPVQFEILSDQSVNFGFSKFPWVNYQDGNLNISIPVFSIHGNHDDPTGADALCALDILSCAGFVNHFGRSMSVEKIDISPVLLQKGSTKIALYGLGSIPDERLYRMFVNKKVTMLRPKEDENSWFNLFVIHQNRSKHGSTNFIPEQFLDDFIDLVIWGHEHECKIAPTKNEQQLFYISQPGSSVVTSLSPGEAVKKHVGLLRIKGRKMNMHKIPLHTVRQFFMEDIVLANHPDIFNPDNPKVTQAIQSFCLEKIEEMLENAERERLGNSHQPEKPLVRLRVDYSGGFEPFSVLRFSQKFVDRVANPKDIIHFFRHREQKEKTGEEINFGKLITKPSEGTTLRVEDLVKQYFQTAEKNVQLSLLTERGMGEAVQEFVDKEEKDAIEELVKYQLEKTQRFLKERHIDALEDKIDEEVRRFRETRQKNTNEEDDEVREAMTRARALRSQSEESASAFSADDLMSIDLAEQMANDSDDSISAATNKGRGRGRGRRGGRGQNSASRGGSQRGRADTGLETSTRSRNSKTAVSASRNMSIIDAFKSTRQQPSRNVTTKNYSEVIEVDESDVEEDIFPTTSKTDQRWSSTSSSKIMSQSQVSKGVDFESSEDDDDDPFMNTSSLRRNRR
B4: Trex2: endonuclease Trex2, expressed from plasmid (protein, UniProt Q9BQ50 1-236, looked up)
Three prime repair …: MSEAPRAETFVFLDLEATGLPSVEPEIAELSLFAVHRSSLENPEHDESGALVLPRVLDKLTLCMCPERPFTAKASEITGLSSEGLARCRKAGFDGAVVRTLQAFLSRQAGPICLVAHNGFDYDFPLLCAELRRLGARLPRDTVCLDTLPALRGLDRAHSHGTRARGRQGYSLGSLFHRYFRAEPSAAHSAEGDVHTLLLIFLHRAAELLAWADEQARGWAHIEPMYLPPDDPSLEA

Assays:
[1] = tested on: human iPSC; experiment: mThy1 gene targeting in hiPSC co-transfected with DNA repair or viral inhibitor genes; format: cell-based
Protocol: FIGS. 9A-G. Effects of chemical and genetic inhibitors on mThy1 gene targeting in hiPSC. FIG. 9A. Mouse Thy1 gene targeting scheme. Human iPSC were nucleofected with the mThy1 targeting vector system plasmids and analyzed by flow cytometry five days later. The percentages of mThy1^+hThy1^−, mThy1^+hThy1^+, and mThy1^−hThy1^− cells for each sample (gated on live single cells) are graphed. Lines mark the percentage values for the control sample. FIGS. 9B-9D. Human iPSC were nucleofected with: 2 μg mThy1 targeting vector; 0.5 μg Cas9 plasmid; and 1.5 μg of sgRNA plasmids. The sample was divided into multiple wells and cultured in plain media (mTeSR1+10 μM Y-27632 ROCK inhibitor) supplemented with the indicated chemical inhibitor for three days. 20 μM pifithrin α, 200 μM peptide V5 (VPMLK, SEQ ID NO:31), 200 μM peptide control (IPMIK, SEQ ID NO:32), 50 μM TEMPOL, or the indicated concentrations of SCR7 or L755507 were used. FIG. 9B, mThy1^+hThy1^− (bottom portion of each bar in each graph), mThy1^+hThy1^+ (top portion of each bar in each graph). FIG. 9C, mThy1^+hThy1^− (bottom portion of each bar in each graph), mThy1^+hThy1^+ (top portion of each bar in left and center graphs, middle portion of each bar in right graph), and mThy1^−hThy1^− (top portion of each bar in right graph). FIG. 9D, mThy1^+hThy1^− (bottom portion of each bar in each graph), mThy1^+hThy1^+ (center portion of each bar in each graph), and mThy1^−hThy1^− (top portion of each bar in each graph). FIGS. 9E-9F. Human iPSC were nucleofected with: 2 μg mThy1 targeting vector plasmid; 0.5 μg Cas9 plasmid; 1 μg of sgRNA plasmids; and 0.5 μg of plasmid expressing the indicated DNA repair gene or pUC19 control (“Cas9 only”). For FIG. 9E, cultures were treated with 50 μM zVAD and 10 μM SB203580 post transfection. mThy1^+hThy1^− (bottom portion of each bar in each graph), mThy1^+hThy1^+ (top portion of each bar in left and center graphs, middle portion of each bar in right graph), and mThy1^−hThy1^− (top portion of each bar in right graph). FIG. 9F, mThy1^+hThy1^− (bottom portion of each bar in each graph), mThy1^+hThy1^+ (top portion of each bar in left and center graphs, middle portion of each bar in right graph), and mThy1^−hThy1^− (top portion of each bar in right graph). FIG. 9G. Human iPSC were nucleofected with: 2 μg mThy1 targeting vector plasmid; 0.5 μg Cas9 plasmid; and 1.5 μg of sgRNA plasmids. The indicated viral inhibitor genes were cloned into the Cas9 expression vector following an IRES sequence. Cultures were supplemented with 50 μM zVAD post transfection. mThy1^+hThy1^− (bottom portion of each bar in each graph), mThy1^+hThy1^+ (top portion of each bar in left and center graphs, middle portion of each bar in right graph), and mThy1^−hThy1^− (top portion of each bar in right graph). […]

[2] = tested on: human iPSC; experiment: gene disruption of hiPSC surface markers with truncated sgRNAs and Trex2 (flow cytometry); format: cell-based; settings: 1 μg Trex2 plasmid with Cas9 and sgRNA plasmids, five days
Text: FIG. 12. Gene disruption activity of truncated sgRNAs with and without the Trex2 endonuclease. Full length (20 bp of target complementarity) and Truncated (18-19 bp) sgRNAs were designed to target the coding region of four genes expressed on the surface of hiPSC (top) and cloned into expression plasmids under the constitutive U6 promoter. The Cas9 nuclease and Trex2 endonuclease were also cloned into separate expression plasmids under the constitutive EF1α promoter. Human iPSC were nucleofected with 0.5 μg Cas9 plasmid, 1 μg sgRNA plasmid, and 1 μg of either pUC19 control or Trex2 plasmid. Five days later, cells were stained for expression of the surface markers (Thy 1, CD147, HLA-A2, or HLA-BC) and analyzed by flow cytometry gated on live single cells (open histograms). Shaded histograms indicate staining of an untargeted hiPSC control. The percent of cells that have lost expression of the surface markers is shown.
Pluripotency of iPSC cultures was verified by flow cytometry staining using anti-human Tra-1/60 PE (TRA-1-60, BD) and anti-human Oct3/4 eFluor 660 (EM92, eBioscience) with the fixation buffer sold under the trademark BD CYTOFIX™ and permeabilization buffer sold under the trademark PHOSFLOW™ Perm/Wash buffers. […] Viable cell counts were measured with the cell analyzer sold under the trademark MUSE® Count & Viability Assay kit (EMD Millipore). […]

[3] = 0.5 μg plasmid overexpressing the DNA repair gene, 50 μM zVAD and 10 μM SB203580 post transfection (FIG. 9E)

Molecule	mThy1 gene targeting efficiency [1, 3]	gene disruption frequencies [2]	mThy1 gene targeting efficiency ([1]; Trex2 plasmid added (FIG. 9F))
B1	reduced gene targeting efficiency	–	–
B2	did not improve mThy1 gene targeting efficiency	–	–
B3	did not improve mThy1 gene targeting efficiency	–	–
B4	–	increased gene disruption frequencies	reduced mThy1 gene targeting efficiency
